For this test, the target named is Recombinant EpCAM (R&D systems), conjugated with Alexa Fluor 647 (UniProt P16422). As to the kind of experiment: flow cytometry, AF647-labelled recombinant EpCAM at 360nM on HEK293T cells expressing the myc-tagged CAR; ratio to anti-myc-FITC signal. On the technique in general: In flow cytometry, cells or beads pass a laser one at a time.
Sequence of UniProt P16422 (P16422 24-265 limits assumed): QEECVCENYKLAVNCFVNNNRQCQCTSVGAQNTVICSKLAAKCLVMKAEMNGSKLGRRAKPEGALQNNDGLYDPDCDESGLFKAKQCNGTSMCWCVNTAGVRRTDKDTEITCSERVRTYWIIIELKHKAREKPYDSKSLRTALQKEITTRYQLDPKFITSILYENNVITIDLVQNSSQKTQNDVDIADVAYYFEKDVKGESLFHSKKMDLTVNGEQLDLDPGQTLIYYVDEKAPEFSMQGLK

Take “CAR containing D1A scFv (UBS-54 variant, CDR-H3 APFLHY) (from UniProt P01732 138-182; P10747 153-220; P20963 52-164)”: the MFIAF647/MFIFITC came to 0.246.

“CAR containing F3A scFv (UBS-54 variant, alanine at CDR-H3 position 3) (from UniProt P01732 138-182; P10747 153-220; P20963 52-164)”: the MFIAF647/MFIFITC is 0.016. The result for “CAR containing L4A scFv (UBS-54 variant, CDR-H3 DPFAHY) (from UniProt P01732 138-182; P10747 153-220; P20963 52-164)” reads 0.302; that for “CAR containing Y6A scFv (UBS-54 variant, CDR-H3 DPFLHA) (from UniProt P01732 138-182; P10747 153-220; P20963 52-164)”, 0.018. For “CAR containing Y6F scFv (UBS-54 variant, CDR-H3 DPFLHF) (from UniProt P01732 138-182; P10747 153-220; P20963 52-164)”, the MFIAF647/MFIFITC came to 0.239. The result for “CAR containing Y6L scFv (UBS-54 variant, CDR-H3 DPFLHL) (from UniProt P01732 138-182; P10747 153-220; P20963 52-164)” reads 0.031; that for “CAR containing Y6V scFv (UBS-54 variant, CDR-H3 DPFLHV) (from UniProt P01732 138-182; P10747 153-220; P20963 52-164)”, 0.026.

These data come from patent US20210317229A1.
